Test in all cases: SPR
On the technique in general: Surface plasmon resonance follows binding to a sensor surface in real time, without labels.

In one test the target is FcgRIIIa F (human, UniProt P08637).
Another test has as its target T1, FcgRIa (human, UniProt P12314).
T1 chain: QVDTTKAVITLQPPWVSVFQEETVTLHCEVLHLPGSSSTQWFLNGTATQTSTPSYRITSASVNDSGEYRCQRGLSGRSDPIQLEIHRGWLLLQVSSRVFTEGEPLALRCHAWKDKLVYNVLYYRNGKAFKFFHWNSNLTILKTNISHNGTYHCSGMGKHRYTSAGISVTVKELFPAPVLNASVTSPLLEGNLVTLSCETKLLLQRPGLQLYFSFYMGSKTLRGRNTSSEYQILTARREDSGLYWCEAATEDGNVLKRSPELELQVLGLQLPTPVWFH

For the next test, the target named is T2, FcgRIIa R (human, UniProt P12318).
T2 chain: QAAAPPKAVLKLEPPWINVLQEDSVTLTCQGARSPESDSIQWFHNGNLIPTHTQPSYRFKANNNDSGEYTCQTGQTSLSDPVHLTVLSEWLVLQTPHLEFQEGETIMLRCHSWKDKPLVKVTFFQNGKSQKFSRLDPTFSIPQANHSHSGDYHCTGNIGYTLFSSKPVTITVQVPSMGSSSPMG

For the next test, the target named is FcgRIIIa V (human, UniProt P08637).
FcgRIIIa V, sequence (P08637 17-208 F176V): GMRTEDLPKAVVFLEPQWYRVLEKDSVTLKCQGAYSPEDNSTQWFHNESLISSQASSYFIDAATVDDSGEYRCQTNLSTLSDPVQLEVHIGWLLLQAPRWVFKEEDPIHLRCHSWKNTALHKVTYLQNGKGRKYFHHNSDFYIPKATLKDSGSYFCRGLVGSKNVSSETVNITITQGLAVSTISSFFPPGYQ
A further test has as its target T3, FcgRIIa H (human, UniProt P12318).
T3 chain: T2 chain with R134H

Another test deals with T4, FcgRIIb (human, UniProt P31994).
T4 chain: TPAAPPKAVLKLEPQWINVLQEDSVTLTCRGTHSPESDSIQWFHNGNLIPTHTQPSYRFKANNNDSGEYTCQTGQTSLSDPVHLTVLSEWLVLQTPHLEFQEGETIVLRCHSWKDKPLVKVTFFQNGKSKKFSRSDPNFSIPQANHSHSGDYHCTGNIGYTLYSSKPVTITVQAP

Changes are numbered by the printed parent chain. “And” between values parts separate entries of the source, which are not always exact repeats. Identical values can stand only once.

What is called Kd is the equilibrium constant for the complex coming apart.

FcgRIIIa F, sequence (P08637 17-208): as the sequence (P08637 17-208 F176V) above, with V160F counted along it

B1: H240-FA024/H240-FB001/L73-k0 (antibody)
chain 1: QDQLVQSGAEVKKPGASVKVSCKASGFNIKDTYIQWVRQAPGQGLEWMGRIDPLRKQTKYREKFEGRVTITADTSTNTAYMELSSLRSEDTAVYYCVRSGREFDYWGQGTLVTVSSASTKGPSVFPLAPSSKSTSGGTAALGCLVKDYFPEPVTVSWNSGALTSGVHTFPAVLQSSGLYSLSSVVTVPSSSLGTKTYTCNVNHKPSNTKVDKKVEPKSCDKTHTCPPCPAPEYYWGPSVFLFPPKPKDTLMISRTPEVTCVVVDVSDEEPKVKFNWYVDGVEVHNAKTKPREEQYNATYRVVSVLTVLHQDWLNGKEYKCKVSNKALPAPIEKTISKAKGQPREPQVYTLPPSRKEKTKNQVSLTCLVKGFYPSDIAVEWESNGQPENNYKTTPPVLDSDGSFFLYSKLTVDKSRWQQGNVFSCSVMHEALHNRYTQKSLSLSP
chain 2: QDQLVQSGAEVKKPGASVKVSCKASGFNIKDTYIQWVRQAPGQGLEWMGRIDPLRKQTKYREKFEGRVTITADTSTNTAYMELSSLRSEDTAVYYCVRSGREFDYWGQGTLVTVSSASTKGPSVFPLAPSSKSTSGGTAALGCLVKDYFPEPVTVSWNSGALTSGVHTFPAVLQSSGLYSLSSVVTVPSSSLGTQTYICNVNHKPSNTKVDKKVEPKSCDKTHTCPPCPAPELLGGPSVFLFPPKPKDTLMISRTPEVTCVVVDVSHEEPEVQFNWYVDGVEVHNAKTKPREEQYNSTYRVVSVLTVLHQDWLNGKEYKCKVSNDALPMPIEETISKAKGQPREPQVYTLPPSREEMTKNQVSLTCLVKGFYPSDIAVEWESNGQPENNYKTTPPVLDSDGSFFLYSKLTVDKSRWQQGNVFSCSVMHEALHNHYTQESLSLSP
chain 3: DIQMTQSPSSLSASVGDRVTITCRASQDIHKYIAWYQQKPGQAPRLLIQYTSTLQPGVPSRFSGSGSGTDYTFTISSLQPEDIATYYCLQYEQLRTFGGGTKVEIKRTVAAPSVFIFPPSDEQLKSGTASVVCLLNNFYPREAKVQWKVDNALQSGNSQESVTEQDSKDSTYSLSSTLTLSKADYEKHKVYACEVTHQGLSSPVTKSFNRGEC
In the case of B1, the Kd with FcgRIIIa F came to 6.7 nM; with FcgRIa, 1.8 nM; with FcgRIIa R, 370 nM; with FcgRIIIa V, 1.9 nM; with FcgRIIa H it was 110 nM; with FcgRIIb, 2000 nM.

B2: H240-FA021/H240-FB084/L73-k0 (antibody)
chain 1: B1 chain 1 with K271E, V396K
chain 2: B1 chain 2 with G136E, G137S, K146E, S191N, L192F, I198T, N202D, K213T, K287E, N383E
chain 3: B1 chain 3
With B2, the Kd with FcgRIIIa F worked out at 3.3 nM; with FcgRIa it was 0.033 nM; with FcgRIIa R it was 230 nM; in the test with FcgRIIIa V it was 1.3 nM; with FcgRIIa H it was 69 nM; with FcgRIIb, 1300 nM.

B3: H240-FA021/H240-FB059/L73-k0 (antibody)
chain 1: B1 chain 1 with K271E, V396K
chain 2: B1 chain 2 with G137E, K146E, K287E
chain 3: B1 chain 3
In the case of B3, the Kd in the test with FcgRIIIa F came to 4.4 nM; with FcgRIa, 0.069 nM; with FcgRIIa R, 280 nM; in the test with FcgRIIIa V it was 1.7 nM; with FcgRIIa H it was 92 nM; with FcgRIIb it was 1300 nM.

B4: H240-FA030/H240-FB001/L73-k0 (antibody)
chain 1: B1 chain 1 with K357M
chain 2: B1 chain 2
chain 3: B1 chain 3
Turning to B4, the Kd in the test with FcgRIIIa F was 6.4 nM; with FcgRIa it was 0.036 nM; with FcgRIIa R it was 440 nM; in the test with FcgRIIIa V, 1.7 nM; in the test with FcgRIIa H, 120 nM; with FcgRIIb, 3300 nM.

B5: H240-FA020/H240-FB083/L73-k0 (antibody)
chain 1: B1 chain 1 with K271E
chain 2: B1 chain 2 with G136E, G137S, K146E, S191N, L192F, I198T, N202D, K213T, K287E
chain 3: B1 chain 3
Take B5: the Kd with FcgRIIIa F stood at 3.4 nM; in the test with FcgRIa, 0.12 nM; in the test with FcgRIIa R it was 230 nM; with FcgRIIIa V, 1.1 nM; with FcgRIIa H, 65 nM; with FcgRIIb, 1000 nM.

B6: H240-FA030/H240-FB084/L73-k0 (antibody)
chain 1: B1 chain 1 with K357M
chain 2: B1 chain 2 with G136E, G137S, K146E, S191N, L192F, I198T, N202D, K213T, K287E, N383E
chain 3: B1 chain 3
Regarding B6, the Kd was 4.2 nM with FcgRIIIa F; 0.12 nM with FcgRIa; 270 nM with FcgRIIa R; 1.3 nM with FcgRIIIa V; 88 nM with FcgRIIa H; 2500 nM with FcgRIIb.

B7: H240-FA030/H240-FB059/L73-k0 (antibody)
chain 1: B1 chain 1 with K357M
chain 2: B1 chain 2 with G137E, K146E, K287E
chain 3: B1 chain 3
Take B7: the Kd was 3.9 nM and 4.8 nM in the test with FcgRIIIa F; 0.082 nM and 0.12 nM with FcgRIa; 260 nM and 250 nM in the test with FcgRIIa R; 1.2 nM and 1.4 nM in the test with FcgRIIIa V; 85 nM with FcgRIIa H; 1500 nM with FcgRIIb.

B8: H240-FA024/H240-FB064/L73-k0 (antibody)
chain 1: B1 chain 1
chain 2: B1 chain 2 with G136E, G137S, S191N, L192F, I198T, N202D, K213T
chain 3: B1 chain 3
Take B8: the dissociation constant Kd was found to be 4.7 nM with FcgRIIIa F; 0.095 nM with FcgRIa; 330 nM with FcgRIIa R; 1.3 nM with FcgRIIIa V; 110 nM with FcgRIIa H; 1900 nM with FcgRIIb.

B9: H240-FA024/H240-FB082/L73-k0 (antibody)
chain 1: B1 chain 1
chain 2: B1 chain 2 with G137E, K146E, K287E, N383E
chain 3: B1 chain 3
For B9, the Kd worked out at 4.6 nM with FcgRIIIa F; 0.13 nM with FcgRIa; 240 nM with FcgRIIa R; 1.3 nM in the test with FcgRIIIa V; 80 nM with FcgRIIa H; 1500 nM with FcgRIIb.

B10: H240-FA009/H240-FB001/L73-k0 (antibody)
chain 1: B1 chain 1 with T198I, K271E, K357M
chain 2: B1 chain 2
chain 3: B1 chain 3
Consider B10, for which the Kd is 4.3 nM in the test with FcgRIIIa F; 0.17 nM with FcgRIa; 250 nM with FcgRIIa R; 1.1 nM in the test with FcgRIIIa V; 69 nM in the test with FcgRIIa H; 1300 nM with FcgRIIb.

B11: H240-FA009/H240-FB016/L73-k0 (antibody)
chain 1: B1 chain 1 with T198I, K271E, K357M
chain 2: B1 chain 2 with N202D
chain 3: B1 chain 3
In the case of B11, the dissociation constant Kd was found to be 4.4 nM in the test with FcgRIIIa F; 0.13 nM with FcgRIa; 250 nM with FcgRIIa R; 1 nM with FcgRIIIa V; 70 nM with FcgRIIa H; 1400 nM with FcgRIIb.

B12: H240-FA024/H240-FB084/L73-k0 (antibody)
chain 1: B1 chain 1
chain 2: B1 chain 2 with G136E, G137S, K146E, S191N, L192F, I198T, N202D, K213T, K287E, N383E
chain 3: B1 chain 3
As for B12, the equilibrium dissociation constant (Kd) with FcgRIIIa F stood at 4.6 nM; with FcgRIa, 0.095 nM; in the test with FcgRIIa R, 250 nM; in the test with FcgRIIIa V it was 1.2 nM; in the test with FcgRIIa H, 79 nM; with FcgRIIb, 1500 nM.

B13: H240-FA030/H240-FB082/L73-k0 (antibody)
chain 1: B1 chain 1 with K357M
chain 2: B1 chain 2 with G137E, K146E, K287E, N383E
chain 3: B1 chain 3
For the molecule B13, the Kd turned out to be 4.3 nM with FcgRIIIa F; 0.092 nM with FcgRIa; 300 nM in the test with FcgRIIa R; 1.3 nM with FcgRIIIa V; 88 nM in the test with FcgRIIa H; 1900 nM in the test with FcgRIIb.

Source of the values: patent publication US10766960 (dated 2020).
